This assay concerns the target mouse-TfR Fab (8D3) fused to SpyCatcher. The assay is described as follows: cell-based or functional assay.

For the substance “soluble SpyTag peptide (peptide; modification not given; by the resolver: SpyCatcher is fused to one Fab chain and forms an isopeptide bond with SpyTag, whether soluble or on the capsid)”, the cross conjugation signal (luciferase, transduction assay on mTfR+HEK293) (log reduction) stood at 2.
